Target: T1, survivin (His-tagged, from pHIS8) (human, UniProt O15392 1-142)
T1 construct: survivin, human, residues 1-142 (142 amino acids), called the full-length construct; plasmid pHis8-survivin obtained from the Verdecia lab (doi 10.1038/76838); The tag is detected by the anti-His antibody on the microarray; For NMR the protein was uniformly 15N labelled (M9 medium); For MST one copy was labelled with the GREEN-MALEIMIDE (cysteine reactive) dye; also called survivin_(1-142); …
Experiment: NMR titration; peptides titrated into [U-15N]-survivin (0.3 mM); 2D [15N,1H]-SOFAST-HMQC; NMR buffer (50 mM Tris, 150 mM NaCl, 1 mM DTT, pH 7.5), 298 K; global signal attenuation fitted with a logistic function (critical peptide concentration, cpc)
Conditions: both partners purified

T1 sequence (O15392 whole entry, the tested form may be a part): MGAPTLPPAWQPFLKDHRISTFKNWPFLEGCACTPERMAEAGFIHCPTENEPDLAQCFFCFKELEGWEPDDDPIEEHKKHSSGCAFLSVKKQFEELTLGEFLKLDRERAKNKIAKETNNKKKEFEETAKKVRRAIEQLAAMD

| Binder | NMR cpc (critical peptide concentration) [µM] |
| --- | --- |
| VELVNALGQYNDDDDDDDGDDPEEREEKQKDLEDHRDDKE (source: synthetic peptide, bought: Biomatik (purified to 95%)) [EZH2_(172-211) peptide] | 0.0021 |
| PLRPQEMEVDSEDEKDPEWLREKTI (suppressor of zeste 12 (SUZ12), residues 573-597; source: synthetic peptide, bought: Biomatik (purified to 95%)) [SUZ12_(573-597) peptide] | 0.0066 |
| SQGEIRLLQSYVDADADENFYTCAW (embryonic ectoderm development (EED), residues 128-152; source: synthetic peptide, bought: Biomatik (purified to 95%)) [EED_(128-152) peptide] | 0.0076 |
| PNSMVYFGSSQDEEEVEEEDDETED (source: synthetic peptide, bought: Biomatik (purified to 95%)) [JARID2_(170-194) peptide] | 0.0085 |

From PMC10391610, “Survivin prevents the polycomb repressor complex 2 from methylating histone 3 lysine 27” (iScience, 2023)
